As usually defined, the Tm is the temperature at which the thermal transition is half complete.

For this data set the following is noted: Saccharolobus solfataricus (strain ATCC 35092 / DSM 1617 / JCM 11322 / P2), Thermal, CD, phosphate 10 mM, reversible: yes, whole UniProt chain shown.

B1: DNA-binding protein 7d wild type, P39476 (protein)
chain: MATVKFKYKGEEKEVDISKIKKVWRVGKMISFTYDEGGGKTGRGAVSEKDAPKELLQMLEKQKK
B1: the melting temperature (Tm) runs as follows: (pH 3) 80 °C; (pH 4) 95 °C; (pH 5) 98.5 °C; (pH 6) 99 °C; (pH 7) 98 °C; (pH 8) 97.5 °C. Further, where the note is “pH 9”, the Tm is 97 °C. In addition, the “unfolding enthalpy (van 't Hoff)” value (pH 3) was 50.2 kcal/mol; the “unfolding enthalpy (van 't Hoff)” value (pH 4) stood at 57.4 kcal/mol; the “unfolding enthalpy (van 't Hoff)” value (pH 5) stood at 62.1 kcal/mol; the “unfolding enthalpy (van 't Hoff)” value (pH 6) was determined as 64.5 kcal/mol; the “unfolding enthalpy (van 't Hoff)” value (pH 7) was found to be 64.5 kcal/mol; the “unfolding enthalpy (van 't Hoff)” value (pH 8) was 62.1 kcal/mol. Moreover, the “unfolding enthalpy (van 't Hoff)” value (pH 9) came to 59.8 kcal/mol.

These data come from FireProtDB (doi:10.1021/bi034520t).
